Results: the DeepSol protein solubility set

Assay: soluble on expression in E. coli; label from the status in PepcDB or PDB records

**Q.** With “MSLSNDIELTIDIELQSYLTSLFEGNAGAAIIMNVNDGSILAAGSFPEYDLNPFVTGISFKDWDELSNSLDHPFTNKLINGYYPPGSVVKMGVGLSFLNSKNISPSTHYVCNGSIELGGRFFRCWNRSGHGPVDLKHAIKYSCDVYFYNGSLQVGIDQISETLSRIGFGVKTGVDLPSEFVGTLPSKEWKMQRYRQSWFQGDTLNTAIGQGNFLATPMQIARYTAQIAKSGEVIPHFLKSIENNNTTIENQMDENKKEIFTLFEKSQLPYIRDAMYAVANEQGGTSYRYLHNLDVKVAAKTGTAQVVGFSQTDKNRVDEKQFEYYTRSHAWLTSYAPYSKPKYVVTVLLEHGGRNITSGATVAKIYQKMIELGYFKEGHHHHHH” as the sequence, how does the “soluble on expression in E. coli” value read?
**A.** not soluble

**Q.** With “MSLRKKIAAFGEVMMRLQVPGYELLSQANTLNYSFSGTGVNVVAALSHLGHEGLLISTLPENSVGDAAVSYIQKLGIQTSLVSRGGKYVGMYFLENGFGARASRVTYSNRLESSFNTASEEIYQFEEIAKEIDIVHFCGITLAMNDTVRHHMKSLARAVKENGGTVVFDCNYRPSLWGEDGYEQAKPHYEEMLGLADIVMMNEKDAMFVLGIKTEETEREAQLVDLIPKVAETYHIATIAGTHRSINSDNTHSLRGFICKDGTFTFAKTLTFSVYDRIGAGDAYTSGIIHGEIKEFAPEKAVSFASAAGMLAHTIVGDTPMSSEKDILRAMTASVGDVEREGHHHHHH” as the sequence, how does the “soluble on expression in E. coli” value read?
**A.** soluble

**Q.** Which “soluble on expression in E. coli” value does the source give for “GSMFPHHSITESVNYDVKTFGSSLPVKVMEALTLAEVDDQLTINIDEGGWACLVCKEKLIIWKIALSPITKLSVCKELQLPPSDFHWSADLVALSYSSPSGEAHSTQAVAVMVATREGSIRYWPSLAGEDTYTEAFVDSGGDKTYSFLTAVQGGSFILSSSGSQLIRLIPESSGKIHQHILPQGQGMLSGIGRKVSSLFGILSPSSDLTLSSVLWDRERSSFYSLTSSNISKWELDDSSEKHAYSWDINRALKENITDAIWGSESNYEAIKEGVNIRYLDLKQNCDGLVILAAAWHSADNPCLIYYSLITIEDNGCQMSDAVTVEVTQYNPPFQSEDLILCQLTVPNFSNQTAYLYNESAVYVCSTGTGKFSLPQEKIVFNAQGDSVLGAGACGGVPIIFSRNSGLVSITSRENVSILAEDLEGSLASSVAGPNSESMIFETTTKNETIA” here?
**A.** soluble

**Q.** With “SVIGRIHSFESCGTVDGPGIRFITFFQGCLMRCLYCHNRDTWDTHGGKEVTVEDLMKEVVTYRHFMNASGGGVTASGGEAILQAEFVRDWFRACKKEGIHTCLDTNGFVRRYDPVIDELLEVTDLVMLDLKQMNDEIHQNLVGVSNHRTLEFAKYLANKNVKVWIRYVVVPGWSDDDDSAHRLGEFTRDMGNVEKIELLPYHELGKHKWVAMGEEYKLDGVKPPKKETMERVKGILEQYGHKVMF” as the sequence, how does the “soluble on expression in E. coli” value read?
**A.** soluble

**Q.** Which “soluble on expression in E. coli” value does the source give for “MAVPATIPLTITNNSGRAEQIHIYNLGTELSSGRQGWADASGAFHPWPAGGNPPTPAPDASIPGPAPGRSTTIQIPKFSGRIYFSYGRKMEFRLTTGGLVQPAVQNPTDPNRDILFNWSEYTLNDSGLWINSTQVDMFSAPYTVGVRRGDGTTLSTGKLRPGGYNGVFNALRGQSGGWANLIQTRSDGTVLRALSPLYGVETGALPASVMDDYINRVWNKYTGTDLIVTPFADRPDVRYTGRVSGGVLRFTDGSGAVVTTFQKPDASSVFGCHRLLDAPNDQVRGPISRTLCAGFNRTTLLANPHQPDRSAAGFYQEPVTNHYARIIHAHMADGKAYGFAFDDVGHHESLVHDGDPRGASLTLDPFD” here?
**A.** soluble

**Q.** With “MNNDVTRILKDARDQGRLTALDYAELIFDNFMELHGDRQFADDKSIIGGLGYLAGRPVTIVGIQKGKNLQDNLDRHFGQPHPEGYRKALRLMKQAEKFGRPVITFINTAGAYPGVGAEERGQGEAIARNLLEMSDLKVPIIAIIIGEGGSGGALALAVADKVWMLEHTVYSILSPEGFASILWKDGTRTTEAAQLMKMTAGELYHMEVVDKVIPEHGYFSSEIVDMIKTSLISELEVLSQLSLEDLLEQRYQRFRKY” as the sequence, how does the “soluble on expression in E. coli” value read?
**A.** not soluble

**Q.** For “MDRPSRITRFFMGIVSWAERLNLKYAKLGNPPVYDNATFPWSAEIEKEWPAIRKELDKILLRQSKLPSFQDISTDVKTISTDNRWKTFFLLGFGVKSEQNIKACPETWRIVNKIPGLTTAMFSIFEPGKHLPPHRGPYNGVLRLHLGLIVPEPNDHWRSAWTARSATGTKARCLEHHHHHH”, which “soluble on expression in E. coli” value is on record?
**A.** not soluble

**Q.** With “MSLDKPVIQIHTDNSSLIFRVADNGRLYQSYLGKKLNHEADISHLPQGTEAYITHGMEDYFEPAIHILHNDGNPSLLLKYVSHETKAVSQGVNETIITLGDDKYPVTVKLHYVTYPAEDIIKTYTEISHKEKKPVVLHQYASSMLHLNRAKYYLTEFSGDWAHEANISDQPLEFGKKVLDTKLGARANMFTPPFFQLSLDQLATENCGEVLVGTLGWTGNFRFTFEVDNKNELRIISGINPYASEYYLPAGVVFRTPDFYFTYSANGKGKASRNFHDWARRYQLKDGDETRMTLLNNWEATYFDFNEEKLIGLIGDAAGLGVDMFLLDDGWFANKYPRSSDHQGLGDWDETADKLPNGIGRLVEEATKKGIKFGLWIEPEMVNPKSELYEKHKDWVIHLPNRDEYYFRNQLVLDLSNPKVQDFVFGVVDDLMTKYPGIAFFKWDCNSPITNIYSSYLKEKQSHLYIDYVRGLYNVLERIKTKYPDLPMMLCSGGSGRIDYETLRYFTEFWPSDNTDPIERLFIQWGYSQLFPAKTLCAHVTTWNHDASIKFRTDVAMMGKLGFDIKLSDLNDNEKKFCRDAVTNYNHLKPVVLEGDMYRLVSPYSGNHTSTQYVGKDKKGAVVFAFDIYSRYGEKLLPVRLQGLDAGRQYRVKEINLMPGTNSSLQGNGELFSGEYLMTVGLNIFTGQRLNSRVIEVVAEEGHHPITTDPNSSSVDKLAAALEHHHHHH” as the sequence, how does the “soluble on expression in E. coli” value read?
**A.** soluble

**Q.** With “MNVSFSTPVQNSTASRLALIQQAAARSGALPPAGQYRGSKLSPFDVSQMSGVSISMVERAKINGPEFVEELEWLRQQTTSRCFLDAEMWTNEILAHLPDKWCAPNTLNLYNQVSELVLDNTRSPMASPASNSLYAPGEDQMPTVKRNHTSRFAQSLIKNKEFRRAAFFLEKTMNGNKLDHFLHFRCLFLAYYQEHLENDAEGIERKTSFAEERSPFSLLYQRMEDKKLRENEDVWFEYLMGLLEVELGLKDLAEKSFRNVVIREPRIWPAWEALSRLIADIEDADKFVTSAEVKSLWMGDWFMTLVLQRFHQHSMAIQKAEQLVTRGMTGLPMIITKIAACSNARHDHDQAISNFEDVRKADPYRLGDLHLLSDSLYIRNDQKKLSTLAIEVYKVHKFRWETCCIVANYHAIRRDSEHAIKFFQRALRLNPGLAALWVLIGHEFMEMKNNAAACVSYRRAIEIDPADHRGWYGLGQMYDIMKMPAYALFYYQEAQKCKPHDSRLLVALGDIYSKLNRIEDAEKCFTGAYLFGDVEGNALWSLAKLHERYSDDNKAAQAFEVFLVVYELVTSAEEKIIYAIAFLANHFFKIEDFDKASEYATKCLAFETLCQEGNRLFREIAKIQARESRLPVEEAPGPSNASAAGGQEAMDTEEAPQEGGEEEMSEGEDDFSF” as the sequence, how does the “soluble on expression in E. coli” value read?
**A.** not soluble

**Q.** For “SKVFNLDRGNTLSVSLFSGVTNSKELLNSMLDGSLKLEVSFLNASLIPGIFPLLAAAQKALISKSRDSLSTRTLHSELVYNYSGSKHITESLKRCGISENTTYILAARFNASPVEMEEVAKLINGKEIDLEELKTHANQANILKHYKITSQELGISSLGDAIVCRIAARDAL”, which “soluble on expression in E. coli” value is on record?
**A.** soluble

**Q.** With “MNEEVVMKFLHTSDWHVGRTLNGWSLLEEQEWAFQQIVDLAISEKVDGVIISGDLYDRAVPPVDAIKLFNKTLARLVLEEQIPVYAISGNHDGAERLHFGRDFFQHQGLHLSTRLEEAFEPIELENCQIFLLPFIDPIDARIYYKDDEGKEIQGIGDALTYILEDMEKAFDPDKAHVLVTHFAVSKKDDSDGQGLRELMLSETSNTVGGLTNVTSDLFKSFDYVALGHIHTRFASPTKRVQYSGSPVAFNVKEAKRKEEKGVYILELDASGDMSQTFHT” as the sequence, how does the “soluble on expression in E. coli” value read?
**A.** not soluble

**Q.** For “MNKKEIQAYQSAFEKFNPFYGVDFPITSVKLCELINKMRNDHNEKVVELRHDHLMNKIREFSEQVNAPNFRVVESSYKDTKGEDRKCYLLGKTECRAIAATESKSVCYMIMVYLDQLEQIFEKAKEAKATEFDRKLSKQGVTWREACRTVGIEHPDLALK”, which “soluble on expression in E. coli” value is on record?
**A.** not soluble

**Q.** For “MGSDKIHHHHHHMMRLLCFIDYLGSGGAQRQLTFLARHLKKSGVDVEVLTYHESDFFIPVLAEAGINVETVRGGGRFTKVFSLRKSIRARKFDVLLAFLNAPALYAEIAALPRRRWGLVVSERLAVPGSSMGFARFRRYLHGLADYVTTNSHTNRLLIEKAVPGLTGKVVTIYNALDLEYFSPLQGPVPAGDGRLRFVVLASHQLKKNLLGLVEAAHQVVQAAPELDFTIEWFGRFDAGKNGPGDTGPFEQAKRRIETFRIQDRFIFSEPTSDVAAVYRRADALILPSFYEGLPNVVCEAMACGRPVLMSNVCDAENLVREGDNGFLFDPRDPADMARAILRFAALSGDDRKLMGEKSRKRAVILFNPERFAAHYRRVLESAMRREQTIIPHWCESIPQSAIRMIENEK”, which “soluble on expression in E. coli” value is on record?
**A.** not soluble

**Q.** For “MRRVVVTGLGALTPIGVGQEAFHKAQLAGKSGVRPITRFDASALPVRIAAEVDVDPGAYLDRKELRRLDRFVQYALIAAQLALEDAGLKPEDLDPERVGTLVGTGIGGMETWEAQSRVFLERGPNRISPFFIPMMIANMASAHIAMRYGFTGPSSTVVTACATGADALGSALRMIQLGEADLVLAGGTEAAITPMAIGAFAVMRALSTRNEEPEKASRPFTLSRDGFVMGEGAGVLVLEAYEHAKKRGARIYAELVGFGRSADAHHITEPHPEGKGAALAMARALKDAGIAPEQVGYINAHGTSTPVGDRAEVLAIKRVFGDHAKRLMVSSTKSMIGHLLGAAGAVEAIATVQALYHGVIPPTINLEDPDPELDLDFVPEPREAKVDYALSNSFAFGGHNAVLAFKRV”, which “soluble on expression in E. coli” value is on record?
**A.** soluble

**Q.** For “MGSDKIHHHHHHMNSKLSLSTKLSSSGKTQLAEYFATPPFKVITLPSYDDAWANGLNAMQMSSSPGVLAGDLLEIDISLAKLTALSLNTQAFTRVQAMNEGDSAMQTTHILLAENSRLFYLPHPLVLHRDSVFKQQTQIEMGEQSELIYGEIVAIGRVLNDERFAFRQFSSHLKIYALQNDGKKRPLVSDCIQWLPSKMNLTALSQMENYSHQGSLTYLNLAKNNAEIKQQVQALQQQSTEEKDLLIGISQLNEYGLMVRVLGCRAEANSEII”, which “soluble on expression in E. coli” value is on record?
**A.** not soluble

**Q.** With “MVLDNLGKALANTLKKIARASSVDEALIKELVRDIQRALIQADVNVRLVLQLTREIQRRALEEKPPAGISKKEHIIKIVYEELTKFLGTEAKPIEIKEKPTILLMVGIQGSGKTTTVAKLARYFQKRGYKVGVVCSDTWRPGAYHQLRQLLDRYHIEVFGNPQEKDAIKLAKEGVDYFKSKGVDIIIVDTAGRHKEDKALIEEMKQISNVIHPHEVILVIDGTIGQQAYNQALAFKEATPIGSIIVTKLDGSAKGGGALSAVAATGAPIKFIGTGEKIDDIEPFDPPRFVSRLLGLGDIQGLLEKFKELEKEVEIKEEDIERFLRGKFTLKDMYAQLEAMRKMGPLKQILRMIPGLGYSLPDDVISIGEERLKKFKVIMDSMTEEELLNPEIINYSRIKRIARGSGTSTKDVKELLDQYRQMKKLFKSMNKRQLSRLARRFGM” as the sequence, how does the “soluble on expression in E. coli” value read?
**A.** soluble
